We go through one protein from patent publication US5498695A, “Paranitroaniline peptides” (Pfizer Inc., priority 1994, dated 1996).

Experiment in all cases: Spectrophotometric hydrolysis of pNA substrates by immobilized ICE (release of pNA at 405 nM)
Type in all cases: biochemical, Human
Holding throughout (settings): other: pNA substrate 0.01 to 1.5 mM, 25° C., pH 7

Substrate in data set [1]: CC(=O)N[C@@H](Cc1ccc(O)cc1)C(=O)N[C@H](C(=O)N[C@@H](C)C(=O)N[C@@H](CC(=O)O)C(=O)Nc1ccc([N+](=O)[O-])cc1)C(C)C
As for the experimental part: (§1) Other procedures for purification and assaying ICE are disclosed in Black et al., FEBS Letters, 247, 386-390 (1989), and Thornberry et al., Nature, 356, 768-774 (1992). Cell Culture And Lysates.
(§2) Human monocyte cell line, THP-1 (ATCC-TIB 202) was grown in RPMI media 1640 (Gibco BRL Gaithersburg, Md. 20877) with 10% fetal bovine serum, harvested by centrifugation, washed twice in Dulbecco's PBS […] without Ca^++, and resuspended in 10 mM Tris-HCl pH 8 buffer containing 5 mM DTT (dithiothreitol), 1 mM EDTA (ethylene diamine tetraacetic acid), 1 mM PMSF (phenylmethyl sulfonylfluoride), 1 μg/ml pepstatin, and 1 μg/ml leupeptin at 1-3×10^8 cells per ml. Cells were frozen at -70° C. until use and then lysed by thawing. Lysates were cleared by centrifugation at 20,000× g for 1 hour followed by 120,000×g for 1 hour.
(§3) ICE activity was purified from THP-1 cell lysates by three chromatographic steps: (A) Thp-1 cell lysate (1.5L) was desalted by G25 column chromatography (Pharmacia LKB Biotechnology) (B) The protein fraction was then subjected to ion-exchange chromatography on Q-Sepharose Fast Flow (Pharmacia LKB Biotechnology) in buffer A (20 mM Tris pH 7.8 containing 5 mM EDTA, 1 mM PMSF, 1 μg/ml pepstatin, and 1 μg/ml leupeptin). ICE activity was eluted with a gradient of NaCl in buffer A. (C) The active fractions from B were desalted, concentrated and subjected to MonoQ (trademark) (Pharmacia LKB Biotechnology) column chromatography. ICE activity was then eluted in a NaCl gradient. Active ICE fractions from C were pooled and used to bind immunoaffinity beads containing covalently linked antibodies raised against the first […] N-terminal residues of ICE (NH2 -Asp-Pro-Ala-Met-Pro-Thr-Ser-Ser-Val-Lys-Leu-Cys(SEQ ID NO:2)-CONH2).
(§4) Immobilization of ICE to immunoaffinity beads was done following standard protocols. Briefly, IgG fractions were covalently linked to protein A beads as described by the manufacturers (Antibody Orientation Kit Protein A Agarose supplied by Affinica (trademark) (Product manufactured by Schleicher and Schuell)). Protein A beads were pelleted by centrifugation and washed with 5 times their volume with Affinica (trademark) supplied "binding buffer". IgG, appropriately diluted in "binding buffer," was then bound to the beads. The beads were then washed and the bound IgG was covalently linked with dimethyl suberimidate. After the reaction was stopped with the "quenching buffer" supplied by Affinica (trademark), the immunoaffinity beads were washed and stored in PBS buffer containing 0.02% NAN3. […]
(§5) The enzymatic reaction was monitored spectrophotometrically at […]. The increase in absorbance at this wave length resulted from the release of pNA chromophore after hydrolysis by ICE of the peptidic-pNA substrate. […]

Substrate in data set [2]: CC(=O)N[C@H](C(=O)N[C@@H](C)C(=O)N[C@@H](CC(=O)O)C(=O)Nc1ccc([N+](=O)[O-])cc1)C(C)C
The procedure: as §1, §2, §3, §4, §5

Substrate in data set [3]: CC(C)[C@H](NC(=O)OC(C)(C)C)C(=O)N[C@@H](C)C(=O)N[C@@H](CC(=O)O)C(=O)Nc1ccc([N+](=O)[O-])cc1
As for the experimental part: as §1, §2, §3, §4, §5

Substrate in data set [4]: CC(C)[C@H](NC(=O)OCc1ccccc1)C(=O)N[C@@H](C)C(=O)N[C@@H](CC(=O)O)C(=O)Nc1ccc([N+](=O)[O-])cc1
As for the experimental part:
as §1, §2, §3, §4, §5

B1: interleukin 1β converting enzyme (ICE) (Homo sapiens) (protein)
chain 1: NPAMPTSSGSEGNVKLCSLEEAQRIWKQKSAEIYPIMDKSSRTRLALIICNEEFDSIPRRTGAEVDITGMTMLLQNLGYSVDVKKNLTASDMTTELEAFAHRPEHKTSDSTFLVFMSHGIREGICGKKHSEQVPDILQLNAIFNMLNTKNCPSLKDKPKVIIIQACRGDSPGVVWFKD
chain 2: AIKKAHIEKDFIAFCSSTPDNVSWRHPTMGSVFIGRLIEHMQEYACSCDVEEIFRKVRFSFEQPDGRAQMPTTERVTLTRCFYLFPGH
notes: ICE activity was purified from THP-1 cell lysates by three chromatographic steps; endogenous in cells; host or cells: THP-1 (ATCC-TIB 202) human monocyte cell line; Lysate was purified over G25, Q-Sepharose and MonoQ, then captured on protein A agarose beads carrying anti-ICE antibody
For the protein B1, the Km is 43.8 µM in data set [1], 447 µM in data set [2], 443 µM in data set [3] and 97.9 µM in data set [4].

By Km is commonly meant the substrate concentration at which the rate is half of its maximum.
